# Patent US20260217797A1 (Takeda / Millennium, published 2026)
# Residue numbers refer to the chain shown, from its start. Read-outs that look alike come from different tables or passages of the source.
# T1: MERS-CoV [change] (MERS-CoV, UniProt K9N5Q8 18-725)
# T1 sequence: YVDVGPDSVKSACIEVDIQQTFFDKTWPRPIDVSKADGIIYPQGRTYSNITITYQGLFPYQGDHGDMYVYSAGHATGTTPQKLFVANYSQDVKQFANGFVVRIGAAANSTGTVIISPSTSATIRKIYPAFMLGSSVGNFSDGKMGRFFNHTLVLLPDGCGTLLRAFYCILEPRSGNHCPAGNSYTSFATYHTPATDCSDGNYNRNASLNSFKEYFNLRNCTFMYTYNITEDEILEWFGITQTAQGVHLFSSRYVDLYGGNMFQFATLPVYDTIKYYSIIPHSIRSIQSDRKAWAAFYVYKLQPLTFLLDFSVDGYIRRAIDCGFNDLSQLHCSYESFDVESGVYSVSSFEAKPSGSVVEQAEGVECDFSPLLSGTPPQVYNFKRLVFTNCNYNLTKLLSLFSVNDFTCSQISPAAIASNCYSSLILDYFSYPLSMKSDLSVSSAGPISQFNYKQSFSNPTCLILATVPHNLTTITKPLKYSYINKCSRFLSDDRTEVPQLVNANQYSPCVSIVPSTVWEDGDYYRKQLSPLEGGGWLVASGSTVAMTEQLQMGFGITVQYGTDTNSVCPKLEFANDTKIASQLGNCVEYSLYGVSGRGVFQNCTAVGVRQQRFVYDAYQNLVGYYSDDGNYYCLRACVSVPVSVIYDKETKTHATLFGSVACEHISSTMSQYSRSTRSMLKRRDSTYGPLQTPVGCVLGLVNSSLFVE
# B1: A-24 Fab (Fab, V domains shown)
# VH: EVQLVESGGGLVKPGRSLRLSCAASGFTFADYAMSWFRQAPGKGLEWVGFIRSKPYGGTTEYAASVKGRFTISRDDSKSIAYLQMNSLKTEDTAVYYCSRDPWYCSGGDCYAVTGSWFDPWGQGTLVTVSS
# VL: DIQMTQSPSSLSASVGDRVTITCQASQDIKKYLNWYQQKPGKAPKLLIYDVSNLETGVPSRFSGSGSGTDFTFTISSLQPEDVAIYYCQQYDNLPQTFGQGTKVEIK
# B2: A-24.1 Fab (Fab, V domains shown)
# VH: B1 VH with A33T, K54E
# VL: B1 VL
# B3: A-24.3 Fab (Fab, V domains shown)
# VH: B1 VH with A33T, K54E
# VL: B1 VL with Q27R, N93Q, K107E
# B4: A-22 (antibody, V domains shown)
# VH: not shown
# VL: EIVLTQSPGTLSLSPGERATLSCRASQTVRSDLAWYQQKPGQAPRLLIYGASTRATDISDRFSGSGSGTEFTLTISSLQSEDFAVYYCQQYYEWPPHSDSFGGGTKVEIK
# B5: A-6 (antibody, V domains shown)
# VH: QVQLVQSGGGVVQPGRSLRLSCAASGFTFSNFAMHWVRQAPGKGLEWVAVILYDGINKYYADSVKGRFTISRGNSKNTLSLQMNSLRAEDTAVYYCARAQNYYDRSGTLQLDAFDIWGQGTMVTVSS
# VL: DIVMTQSPSSLSASVGDRVTITCRASQGIRNDLGWYQQKPGKAPKLLIYAASSLQSGVPSRFSGSGSGTDFTLTISSLQPEDFATYYCLQDYNYPLTFGGGTKVEIK
# How the values were obtained:
# SARS-CoV-2 Spike S1-His [1] = biological target: T2, SARS-CoV-2 Spike S1-His (SARS-CoV-2, UniProt P0DTC2 16-685); assay: Octet BLI, Fab, monovalent
# [2] = biological target: T3, SARS-CoV-2 wild type spike protein (on reporter virus particles) (SARS-CoV-2, UniProt P0DTC2 14-1273); assay: cell-based or functional assay
# [3] = biological target: T3, SARS-CoV-2 wild type spike protein (on …); assay: cell-based or functional assay; remark: listed apart in the source
# SARS-CoV-2 WT RBD = SARS-CoV-2 WT RBD (SARS-CoV-2, UniProt P0DTC2 319-541); assay: Octet BLI single point, monovalent
# [4] = biological target: T3, SARS-CoV-2 wild type spike protein (on …); assay: cell-based or functional assay; remark: listed apart in the source
# [5] = biological target: T3, SARS-CoV-2 wild type spike protein (on …); assay: cell-based or functional assay; remark: listed apart in the source
# SARS-CoV-2 Spike S1-His [6] = biological target: T2, SARS-CoV-2 Spike S1-His; assay: Octet BLI, IgG, monovalent
# SARS-CoV1 Spike [change] [7] = biological target: T4, SARS-CoV1 Spike [change] (SARS-CoV-1, UniProt P59594 14-667); assay: Octet BLI, IgG, monovalent
# SARS-CoV-2 S Trimer = SARS-CoV-2 S Trimer (SARS-CoV-2, UniProt P0DTC2 16-1213); assay: Octet BLI, IgG, avid
# [8] = biological target: T3, SARS-CoV-2 wild type spike protein (on …); assay: cell-based or functional assay; remark: listed apart in the source
# SARS-CoV-2 Spike S1-His [9] = biological target: T2, SARS-CoV-2 Spike S1-His; assay: Octet BLI, IgG, monovalent; remark: listed apart in the source
# SARS-CoV1 Spike [change] [10] = biological target: T4, SARS-CoV1 Spike [change]; assay: Octet BLI, IgG, monovalent; remark: listed apart in the source
# MERS-CoV [change] = biological target: T1, MERS-CoV [change]; assay: Octet BLI, IgG, monovalent
# SARS-CoV-1 spike protein = SARS-CoV-1 spike protein (SARS-CoV-1, UniProt P59594 14-1255); assay: cell-based or functional assay
# [11] = biological target: T3, SARS-CoV-2 wild type spike protein (on …); assay: cell-based or functional assay; remark: listed apart in the source
# [12] = biological target: Bat coronavirus WIV16 spike protein (Bat coronavirus WIV16); assay: cell-based or functional assay
# [13] = biological target: T3, SARS-CoV-2 wild type spike protein (on …); assay: cell-based or functional assay; remark: listed apart in the source
# [14] = biological target: T3, SARS-CoV-2 wild type spike protein (on …); assay: cell-based or functional assay; remark: listed apart in the source
binder,measurement,setting,value
B1,Kd,SARS-CoV-2 Spike S1-His [1],2.97 nM
B2,Kd,SARS-CoV-2 Spike S1-His [1],0.539 nM
B3,Kd,SARS-CoV-2 Spike S1-His [1],0.244 nM
B4,SARS2 PsV IC50,[2],5 nM
same,WT PsV IC50,[3],28.8 nM
same,Kd,SARS-CoV-2 WT RBD,0.325 nM
same,SARS2 IC50,[4],0.06 nM
same,PsV neutralization IC50,[5],0.749 µg/mL
same,PsV neutralization IC90,[5],3.55 µg/mL
same,Kd,SARS-CoV-2 Spike S1-His [6],0.244 nM
same,Kd,SARS-CoV1 Spike [change] [7],4.51 nM
B5,Kd,SARS-CoV-2 S Trimer,1.35 nM
same,PSV IC50,[8],0.878 µg/mL
same,Kd,SARS-CoV-2 Spike S1-His [9],3.71 nM
same,Kd,SARS-CoV1 Spike [change] [10],17.2 nM
same,binding result,MERS-CoV [change],no binding
same,Kd,SARS-CoV-2 WT RBD,1.18 nM
same,PsV neutralization IC50,SARS-CoV-1 spike protein,1.01 µg/mL
same,PsV neutralization IC50,[11],0.015 µg/mL
same,PsV neutralization IC90,[11],0.085 µg/mL
same,PsV neutralization IC50,[12],0.074 µg/mL
same,PsV neutralization IC90,[12],16.3 µg/mL
same,SARS2 IC50,[4],0.023 nM
same,"PsV IC50, Test 1",[13],0.12 nM
same,"PsV IC50, Test 2",[13],2.45 nM
same,PsV neutralization IC50,[5],0.173 µg/mL
same,PsV neutralization IC90,[5],2.03 µg/mL
same,PsV Neut Assay IC50,[14],5.85 nM
